Test results reported in the supplement of paper PMC10567573.

B1: GNB5 (parent)
chain: YYPSGDAFASGSDDATCRLYDLRA
B2: BRF1 (parent)
chain: CTACGSVLEDNIIVSEVQFVESSG

Variants of: B1
Assay: protein stability index of a GFP-peptide fusion (GPS, HEK-293T) (PSI 1-6); higher = more stable
Conditions: c terminus: a fixed tail appended
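Note: lentivirally expressed fusions sorted by FACS into six bins by GFP to DsRed ratio, PSI derived from sequencing read proportions per bin multiplied by bin number.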

Row | Variant | protein stability index
1 | L19W | 2.46
2 | L19R | 2.55
3 | L19F | 2.33
4 | L19H | 2.44
5 | L19N | 2.72
6 | C17R | 2.62
7 | C17E | 3.36
8 | C17Y | 2.23
9 | C17F | 2.07
10 | C17H | 2.56
11 | C17M | 2.46
12 | S10G | 2.36
13 | S10W | 2.23
14 | S10K | 2.25
15 | S10M | 2.16
16 | S10D | 3.28
17 | S10R | 2.1
18 | S10T | 2.68
19 | S10C | 2.01
20 | S10L | 2.05
21 | G5R | 3.12
22 | G5D | 3.77
23 | G5F | 2.61
24 | G5N | 3.88

Row | Variant | protein stability index
25 | G5L | 2.76
26 | G5Q | 2.7
27 | G5C | 3.39
28 | L22S | 3.08
29 | L22K | 3.07
30 | L22C | 3.17
31 | L22I | 2.78
32 | L22W | 2.26
33 | L22R | 2.75
34 | A7H | 2.58
35 | A7T | 2.71
36 | A7I | 2.31
37 | D13A | 1.86
38 | D13N | 2.38
39 | D13I | 2.27
40 | D13W | 1.65
41 | Y1D | 4.09
42 | Y1H | 3.95
43 | Y1A | 3.83
44 | Y1W | 2.86
45 | Y1K | 3.55
46 | Y1P | 3.72
47 | Y1M | 3.67
48 | Y1R | 3.58

Row | Variant | protein stability index
49 | R23I | 2.37
50 | R23M | 2.37
51 | R23H | 2.87
52 | R23G | 2.65
53 | R23S | 2.81
54 | F8D | 4.4
55 | F8I | 3.42
56 | F8M | 3.53
57 | F8H | 4.09
58 | F8T | 4.02
59 | F8N | 4.23
60 | F8L | 3.6
61 | F8P | 4.12
62 | Y2A | 1.79
63 | Y2I | 2.25
64 | Y2T | 1.96
65 | Y2N | 3.55
66 | Y2G | 2.26
67 | Y2F | 2.03
68 | S12N | 2.41
69 | S12A | 2.76
70 | S12V | 2.04
71 | S12W | 2.74
72 | S12E | 2.89

Row | Variant | protein stability index
73 | S12D | 3.23
74 | R18G | 2.85
75 | R18M | 2.2
76 | R18F | 2.84
77 | R18A | 3.06
78 | R18S | 2.88
79 | R18H | 3.23
80 | R18I | 2.42
81 | P3G | 3.33
82 | P3M | 2.99
83 | P3N | 3.36
84 | P3L | 2.31
85 | P3W | 2.32
86 | P3R | 2.88
87 | P3E | 4.01
88 | P3Q | 3.21
89 | A9M | 2.45
90 | A9Q | 2.36
91 | A9P | 3.06
92 | A9N | 2.65
93 | A9H | 2.15
94 | D21G | 2.2
95 | D21L | 2.02
96 | D21V | 1.8

Row | Variant | protein stability index
97 | D21W | 2.25
98 | D21E | 2.47
99 | A15H | 2.05
100 | A15I | 1.97
101 | A15D | 3.4
102 | A15V | 2.72
103 | A15R | 2.24
104 | A15E | 2.75
105 | A15C | 1.98
106 | A15Q | 2.62
107 | A15L | 2.15
108 | A15P | 2.63
109 | A24Q | 3.01
110 | A24P | 2.34
111 | A24R | 2.41
112 | A24C | 2.3
113 | A24F | 2.07
114 | D6V | 2.35
115 | D6E | 2.43
116 | D6Q | 1.83
117 | D6P | 2.81
118 | D6N | 2.11
119 | S4C | 2.16
120 | S4W | 2.49

Row | Variant | protein stability index
121 | S4Y | 2.82
122 | S4H | 2.87
123 | S4N | 3.03
124 | Y20G | 2.63
125 | Y20Q | 2.88
126 | Y20L | 2.6
127 | Y20F | 2.4
128 | Y20S | 2.87
129 | G11W | 2.11
130 | G11E | 2.81
131 | G11V | 1.94
132 | G11L | 2.89
133 | G11I | 1.89
134 | G11P | 2.31
135 | G11A | 2.23
136 | G11R | 1.83
137 | D14F | 2.12
138 | D14K | 1.93
139 | D14W | 1.22
140 | T16R | 2.94
141 | T16A | 2.96
142 | T16G | 2.46

Variants of: B2
Assay: as above
Conditions: c terminus: a fixed tail appended

Row | Variant | protein stability index
143 | N11A | 1.54
144 | N11D | 2.84
145 | N11F | 1.89
146 | N11E | 2.19
147 | N11K | 4.01
148 | N11G | 2.96
149 | N11H | 2.12
150 | N11I | 1.14
151 | N11C | 1.74
152 | N11L | 2.98
153 | L8K | 3.54
154 | L8H | 3.32
155 | L8S | 3.06
156 | L8R | 3.03
157 | L8W | 1.89
158 | L8A | 2.9
159 | L8T | 4.19
160 | L8P | 3.9
161 | L8E | 3.68
162 | L8N | 4.42
163 | L8C | 3.29
164 | L8I | 3.44
165 | L8M | 3.79
166 | L8F | 2.37

Row | Variant | protein stability index
167 | L8V | 3.24
168 | L8D | 3.65
169 | L8G | 3.39
170 | L8Y | 2.93
171 | L8Q | 3.63
172 | G5K | 3.33
173 | G5H | 1.76
174 | G5E | 3.21
175 | G5M | 2.1
176 | G5W | 2.27
177 | G5R | 2.4
178 | G5D | 3.62
179 | G5Y | 1.76
180 | G5T | 2.91
181 | G5I | 2.76
182 | G5Q | 2.92
183 | G5F | 2.41
184 | G5A | 2.86
185 | G5N | 3.24
186 | G5C | 1.78
187 | G5S | 3.17
188 | G5L | 1.75
189 | G5P | 3.67
190 | G5V | 1.33

Row | Variant | protein stability index
191 | S6Q | 2.44
192 | S6V | 2.22
193 | S6C | 2.38
194 | S6L | 1.39
195 | S6E | 2.2
196 | S6I | 1.27
197 | S6D | 2.94
198 | S6K | 3.06
199 | S6H | 4.15
200 | S6P | 2.79
201 | S6T | 3.38
202 | S6A | 2.73
203 | S6R | 2.51
204 | S6F | 1.24
205 | S6M | 1.82
206 | S6G | 3.35
207 | S6Y | 1.59
208 | S6N | 2.5
209 | A3W | 3.08
210 | A3S | 2.91
211 | A3E | 3.6
212 | A3K | 4.04
213 | A3I | 2.06
214 | A3H | 2.56

Row | Variant | protein stability index
215 | A3V | 3.22
216 | A3T | 3.07
217 | A3M | 2.87
218 | A3F | 2.4
219 | A3P | 3.47
220 | A3D | 2.28
221 | A3Y | 2.5
222 | A3N | 4.03
223 | A3R | 2.9
224 | A3Q | 3.88
225 | A3G | 2.37
226 | A3L | 2.08
227 | T2Y | 2.21
228 | T2D | 3.42
229 | T2V | 1.86
230 | T2F | 2.12
231 | T2W | 2.54
232 | T2P | 2.72
233 | T2S | 2.87
234 | T2N | 3.02
235 | T2Q | 3.48
236 | T2K | 3.48
237 | T2E | 3.25
238 | T2I | 2.52

Row | Variant | protein stability index
239 | T2M | 2.78
240 | T2A | 3.64
241 | T2L | 2.75
242 | T2R | 3.17
243 | T2H | 3
244 | T2G | 2.33
245 | V7R | 3.22
246 | V7Q | 2.96
247 | V7A | 3.8
248 | V7H | 2.58
249 | V7C | 2.64
250 | V7I | 2.56
251 | V7Y | 2.37
252 | V7S | 2.85
253 | V7G | 2.8
254 | V7W | 2.53
255 | V7P | 3.64
256 | V7N | 2.94
257 | V7L | 2.51
258 | V7E | 4.17
259 | V7T | 3.86
260 | V7F | 2.33
261 | V7K | 4.22
262 | V7M | 2.72

Row | Variant | protein stability index
263 | V7D | 3.44
264 | D10M | 2.94
265 | D10N | 2.55
266 | D10L | 3.29
267 | D10S | 1.34
268 | D10H | 2.67
269 | D10W | 1.22
270 | D10A | 2.41
271 | D10Q | 2.14
272 | D10K | 3.43
273 | D10E | 3.38
274 | D10Y | 2.24
275 | D10R | 3.89
276 | D10G | 1.84
277 | D10T | 1.79
278 | D10I | 3.2
279 | D10P | 3.44
280 | C1T | 4.16
281 | C1S | 4.13
282 | C1F | 2.63
283 | C1I | 1.46
284 | C1R | 3.83
285 | C1P | 3.29
286 | C1H | 3.6

Row | Variant | protein stability index
287 | C1A | 3.88
288 | C1V | 2.2
289 | C1E | 4.86
290 | C1L | 3.56
291 | C1Q | 4.3
292 | C1D | 4.46
293 | C1N | 3.65
294 | C1M | 3.6
295 | C1Y | 3.18
296 | C1W | 2.51
297 | C1G | 4.18
298 | E9K | 3.55
299 | E9W | 1.83
300 | E9P | 3.75
301 | E9G | 2.16
302 | E9Q | 2.99
303 | E9S | 2.85
304 | E9R | 3.02
305 | E9Y | 2
306 | E9A | 3.03
307 | E9F | 2.67
308 | E9N | 2.85
309 | E9L | 2.24
310 | E9I | 2.08

Row | Variant | protein stability index
311 | E9D | 3.55
312 | E9V | 2.26
313 | E9M | 2.57
314 | E9T | 2.55
315 | E9C | 2.31
316 | E9H | 2.32
317 | C4F | 2.78
318 | C4E | 4.21
319 | C4H | 4.04
320 | C4S | 3.5
321 | C4P | 2.68
322 | C4Y | 2.61
323 | C4D | 4.7
324 | C4K | 4.04
325 | C4I | 3.35
326 | C4G | 3.74
327 | C4V | 3.83
328 | C4R | 3.57
329 | C4L | 3.15
330 | C4Q | 4.18
331 | C4M | 3.88
332 | C4T | 3.21
333 | C4A | 3.49
334 | C4N | 4.37
